US20260028389A1 (BIOCRYST PHARMACEUTICALS, published 2026)

T1: rhKLK14 (human, UniProt Q9P0G3 25-251)
T1 sequence (looked up): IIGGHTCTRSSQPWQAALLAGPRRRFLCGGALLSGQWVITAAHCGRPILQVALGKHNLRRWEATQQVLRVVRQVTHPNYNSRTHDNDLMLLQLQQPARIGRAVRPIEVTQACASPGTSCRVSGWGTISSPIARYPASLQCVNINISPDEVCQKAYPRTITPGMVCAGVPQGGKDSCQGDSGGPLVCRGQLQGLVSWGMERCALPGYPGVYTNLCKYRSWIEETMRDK


Assays:
KLK5 = KLK5 (UniProt Q9Y337 67-293, limits assumed); test: cell-based or functional assay
[1] = biological target: human FcRn (AcrobioSystems; Catalog No: FCM-H5286) (human) (UniProt P55899); test: SPR Biacore 8K, antibody coupled to CM5 chip, human FcRn as analyte, pH 6.0, steady state affinity fit
Sequence of human FcRn (AcrobioSystems; Catalog No: FCM-H5286) (human) (P55899 24-297 limits assumed, chain 1 of 2): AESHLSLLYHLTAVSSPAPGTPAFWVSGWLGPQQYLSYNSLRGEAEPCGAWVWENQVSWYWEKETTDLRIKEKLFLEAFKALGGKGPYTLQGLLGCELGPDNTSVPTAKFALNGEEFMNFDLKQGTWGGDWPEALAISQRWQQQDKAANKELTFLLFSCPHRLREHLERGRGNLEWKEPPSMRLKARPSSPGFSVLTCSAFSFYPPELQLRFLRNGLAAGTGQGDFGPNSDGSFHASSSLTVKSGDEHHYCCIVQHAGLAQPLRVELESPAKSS
Sequence of human FcRn (AcrobioSystems; Catalog No: FCM-H5286) (human) (P61769 21-119 limits assumed, chain 2 of 2, further chain): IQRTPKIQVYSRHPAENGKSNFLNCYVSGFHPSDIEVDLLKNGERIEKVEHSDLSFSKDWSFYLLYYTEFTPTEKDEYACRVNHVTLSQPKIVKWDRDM

rhKLK7 = rhKLK7 (human, UniProt P49862 30-253); test: cell-based or functional assay
Sequence of rhKLK7 (P49862 30-253): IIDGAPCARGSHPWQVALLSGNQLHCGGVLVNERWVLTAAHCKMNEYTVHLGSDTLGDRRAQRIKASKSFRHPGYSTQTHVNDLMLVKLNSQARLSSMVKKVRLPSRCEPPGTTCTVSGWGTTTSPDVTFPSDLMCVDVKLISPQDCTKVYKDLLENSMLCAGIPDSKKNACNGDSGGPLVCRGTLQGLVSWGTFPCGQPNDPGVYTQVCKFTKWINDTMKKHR

rhKLK14 = biological target: T1, rhKLK14; test: cell-based or functional assay
[2] = biological target: T2, human FcRn (AcrobioSystems; Catalog No: FCM-H5286) (human, UniProt P55899 24-297; P61769 21-119); test: SPR Biacore 8K, polypeptide coupled to CM5 chip, human FcRn as analyte, pH 6.0, steady state affinity fit
T2 construct: Bought protein
T2 sequence (P55899 24-297 limits assumed, chain 1 of 2): as the sequence (P55899 24-297 limits assumed, chain 1 of 2) above
T2 sequence (P61769 21-119 limits assumed, chain 2 of 2): as the sequence (P61769 21-119 limits assumed, chain 2 of 2, further chain) above

[3] = biological target: T3, recombinant human KLK5 C-6His (Novoprotein, Catalog No. C415) (human, UniProt Q9Y337 23-293); test: ELISA on captured KLK5 C-6His; binder incubated in human serum, day 4
T3 construct: Bought protein; also called KLK5 protein (Novoprotein); not shown: C-terminal 6xHis tag ('C-6His')

[4] = biological target: T3, recombinant human KLK5 C-6His …; test: ELISA on captured KLK5 C-6His; binder incubated in human serum, day 1
[5] = biological target: T3, recombinant human KLK5 C-6His …; test: ELISA on captured KLK5 C-6His; binder incubated in human serum, day 0
[6] = biological target: T3, recombinant human KLK5 C-6His …; test: ELISA on captured KLK5 C-6His; binder incubated in human serum, day 14
[7] = biological target: T3, recombinant human KLK5 C-6His …; test: ELISA on captured KLK5 C-6His; binder incubated in human serum, day 7
[8] = biological target: T3, recombinant human KLK5 C-6His …; test: SPR Biacore T200, polypeptide captured by anti-human IgG Fc, KLK5 as analyte, pH 7.4, steady state affinity fit
[9] = biological target: T3, recombinant human KLK5 C-6His …; test: ELISA, KLK5 C-6His captured by anti-His mAb; binder incubated in human serum, day 1
[10] = biological target: T3, recombinant human KLK5 C-6His …; test: ELISA, KLK5 C-6His captured by anti-His mAb; binder incubated in human serum, day 4
[11] = biological target: T3, recombinant human KLK5 C-6His …; test: ELISA, KLK5 C-6His captured by anti-His mAb; binder incubated in human serum, day 14
[12] = biological target: T3, recombinant human KLK5 C-6His …; test: ELISA, KLK5 C-6His captured by anti-His mAb; binder incubated in human serum, day 0
[13] = biological target: T3, recombinant human KLK5 C-6His …; test: ELISA, KLK5 C-6His captured by anti-His mAb; binder incubated in human serum, day 7

Molecule | IC50 of KLK5 enzymatic activity, pH 5.5 (KLK5) [nM] | IC50 of KLK5 enzymatic activity, pH 7.5 (KLK5) [nM] | Kd [1] [µM] | KLK7 IC50 (nM) pH 7.5 (enzymatic activity) (rhKLK7) [nM] | KLK14 IC50 (nM) pH 8.0 (enzymatic activity) (rhKLK14) [nM] | Kd [2] [nM] | EC50 [3] [nM] | EC50 [4] [nM] | EC50 [5] [nM] | EC50 [6] [nM] | KLK5 IC50 nM pH 5.5 (enzymatic activity) (KLK5) [nM] | KLK5 IC50 nM pH 7.5 (enzymatic activity) (KLK5) [nM] | EC50 [7] [nM] | KLK14, percent inhibition at 316 nM SPINK9 polypeptide, pH 8.0 (rhKLK14) [%] | Kd [8] [nM] | EC50 [9] [nM] | EC50 [10] [nM] | EC50 [11] [nM] | EC50 [12] [nM] | EC50 [13] [nM]
Wild Type Spink9 (SEQ ID NO: 2) | 685 | 80 |  |  |  |  |  |  |  |  |  |  |  |  |  |  |  |  |  | 
Rituximab (Roche) (antibody) |  |  | 3.1 |  |  |  |  |  |  |  |  |  |  |  |  |  |  |  |  | 
Spink9-112.K62G.Fc (SEQ ID NO: 56) (Fc fusion, Mutant SPINK9 domain fused directly to a C-terminal IgG Fc) IECAKQTKQMVDCSHYKKLPPEQELYCTREYDPICGSDGKTYGNDCFFCSKVKKTDGTLKFVHFGKCEPKSCDKTHTCPPCPAPEAAGGPSVFLFPPKPKDTLMISRTPEVTCVVVDVSHEDPEVKFNWYVDGVEVHNAKTKPREEQYNSTYRVVSVLTVLHQDWLNGKEYKCKVSNKALPAPIEKTISKAKGQPREPQVYTLPPSREEMTKNQVSLTCLVKGFYPSDIAVEWESNGQPENNYKTTPPVLDSDGSFFLYSKLTVDKSRWQQGNVFSCSVLHEALHSHYTQKSLSLSPGK |  |  |  | 2.4 | 246 | 233 | 0.16 | 0.14 | 0.1 | 0.17 | 0.9 | 1.1 | 0.17 |  |  |  |  |  |  | 
Spink9-236.Fc (SEQ ID NO: 60) (Fc fusion, Mutant SPINK9 domain fused directly to a C-terminal IgG Fc) IECAKQTKQMVDCSHYKKLPPEQQLMCTREYDPICGSDGKTYKNDCFFCSKVKKTDGTLKFVHFGKCEPKSCDKTHTCPPCPAPEAAGGPSVFLFPPKPKDTLMISRTPEVTCVVVDVSHEDPEVKFNWYVDGVEVHNAKTKPREEQYNSTYRVVSVLTVLHQDWLNGKEYKCKVSNKALPAPIEKTISKAKGQPREPQVYTLPPSREEMTKNQVSLTCLVKGFYPSDIAVEWESNGQPENNYKTTPPVLDSDGSFFLYSKLTVDKSRWQQGNVFSCSVLHEALHSHYTQKSLSLSPGK |  |  |  | 43.6 |  | 231 | 0.12 | 0.08 | 0.05 | 0.11 | 3.5 | 1.5 | 0.1 | 0 | 0.0291 |  |  |  |  | 
Spink9-186.Fc (SEQ ID NO: 58) (Fc fusion, Mutant SPINK9 domain fused directly to a C-terminal IgG Fc) IECAKQTKQMVDCSHYKKLPPAQLIYCTKEYDPICGSDGKTYKNDCFFCSKVKKTDGTLKFVHFGKCEPKSCDKTHTCPPCPAPEAAGGPSVFLFPPKPKDTLMISRTPEVTCVVVDVSHEDPEVKFNWYVDGVEVHNAKTKPREEQYNSTYRVVSVLTVLHQDWLNGKEYKCKVSNKALPAPIEKTISKAKGQPREPQVYTLPPSREEMTKNQVSLTCLVKGFYPSDIAVEWESNGQPENNYKTTPPVLDSDGSFFLYSKLTVDKSRWQQGNVFSCSVLHEALHSHYTQKSLSLSPGK |  |  |  | 8.3 |  | 232 | 0.21 | 0.16 | 0.09 | 0.29 | 8.3 | 1.9 | 0.12 | 0 | 0.0189 |  |  |  |  | 
SPINK9-112.2K62G.Fc (SEQ ID NO: 76) (Fc fusion, Mutant SPINK9 domain fused directly to a C-terminal IgG Fc) IECAKQTKQMVDCSHYKKLPPEQELYCTREYDPICGSDGKTYGNDCFFCSKVKKTDGTLKFVHFGKCEPKSCDKTHTCPPCPAPEAAGGPSVFLFPPKPKDTLYITREPEVTCVVVDVSHEDPEVKFNWYVDGVEVHNAKTKPREEQYNSTYRVVSVLTVLHQDWLNGKEYKCKVSNKALPAPIEKTISKAKGQPREPQVYTLPPSREEMTKNQVSLTCLVKGFYPSDIAVEWESNGQPENNYKTTPPVLDSDGSFFLYSKLTVDKSRWQQGNVFSCSVMHEALHNHYTQKSLSLSPGK |  |  |  |  |  | 189 |  |  |  |  |  |  |  |  |  | 0.059 | 0.08 | 0.065 | 0.06 | 0.11
Spink9-30.Fc (SEQ ID NO: 55) (Fc fusion, Mutant SPINK9 domain fused directly to a C-terminal IgG Fc) IECAKQTKQMVDCSHYKKLPPEQVSWCTREYDPICGSDGKTYKNDCFFCSKVKKTDGTLKFVHFGKCEPKSCDKTHTCPPCPAPEAAGGPSVFLFPPKPKDTLMISRTPEVTCVVVDVSHEDPEVKFNWYVDGVEVHNAKTKPREEQYNSTYRVVSVLTVLHQDWLNGKEYKCKVSNKALPAPIEKTISKAKGQPREPQVYTLPPSREEMTKNQVSLTCLVKGFYPSDIAVEWESNGQPENNYKTTPPVLDSDGSFFLYSKLTVDKSRWQQGNVFSCSVLHEALHSHYTQKSLSLSPGK |  |  |  | 10.8 |  | 229 | 0.1 | 0.1 | 0.08 | 0.13 | 2.4 | 2.2 | 0.1 | 0 | 0.0909 |  |  |  |  | 
Spink9-183.Fc (SEQ ID NO: 57) (Fc fusion, Mutant SPINK9 domain fused directly to a C-terminal IgG Fc) IECAKQTKQMVDCSHYKKLPPQQQAYCTRDYDPICGSDGKTYKNDCFFCSKVKKTDGTLKFVHFGKCEPKSCDKTHTCPPCPAPEAAGGPSVFLFPPKPKDTLMISRTPEVTCVVVDVSHEDPEVKFNWYVDGVEVHNAKTKPREEQYNSTYRVVSVLTVLHQDWLNGKEYKCKVSNKALPAPIEKTISKAKGQPREPQVYTLPPSREEMTKNQVSLTCLVKGFYPSDIAVEWESNGQPENNYKTTPPVLDSDGSFFLYSKLTVDKSRWQQGNVFSCSVLHEALHSHYTQKSLSLSPGK |  |  |  | 5.4 |  | 222 | 0.12 | 0.09 | 0.07 | 0.1 | 3 | 1.4 | 0.11 | 0 | 0.0216 |  |  |  |  | 
Spink9 WT (Fc fusion, not shown: The C-terminal IgG Fc fragment of the wild-type fusion) IECAKQTKQMVDCSHYKKLPPGQQRFCHHMYDPICGSDGKTYKNDCFFCSKVKKTDGTLKFVHFGKC |  |  |  |  |  |  |  |  |  |  |  |  |  |  | 99 |  |  |  |  | 
